Where no end group is shown, it is not given here. The star is where a group is joined. FITC = O=C1OC2(c3ccc(O)cc3Oc3cc(O)ccc32)c2ccc(NC(=S)*)cc21
B1: Nsp9 (natural protein)
chain: NNELSPVALRQMSCAAGTTQTACTDDNALAYYNTTKGGRFVLALLSDLQDLKWARFPKSDGTGTIYTELEPPCRFVTDTPKGPKVKYLYFIKGLNNLNRGMVLGSLAATVRLQ

Columns and labels:
[1] = target: Nsp3 Ubl1 (SARS-CoV-2, UniProt P0DTD1 819-2763); experiment: FP
[2] = target: Nsp9
[3] = target: B1; experiment: FP
[4] = target: Nsp8
[5] = target: RIF1 1780-1795; experiment: FP
[6] = target: NEK9 737-751; experiment: FP
[7] = target: MVB12A 166-180; experiment: FP
[8] = target: MCM9 796-811; experiment: FP
[9] = target: Nsp16
[10] = target: Nsp3 SUD-M (SARS-CoV-2, UniProt P0DTD1 819-2763); experiment: FP
[11] = target: Nsp3 ADRP (SARS-CoV-2, UniProt P0DTD1 819-2763); experiment: FP

DAALALLLLDRLNQLE [N_(216–231) peptide] was tested, and the Kd [1] was 64 µM.

CPSLSEEILRCLSLHD [NYNRIN_(1031–1046)] showed a Kd [1] of 150 µM.

In the case of YPAHPDGFALGRAPLA [LMTK3 22-36], the Kd [2] is reported as 34 µM.

For SSGLSIGTVFQSSSPY [NEK9 737-751], the Kd [2] was 111 µM.

For PAHPDGFALGRAPLA [LMTK3_(22–36)], the Kd [3] was 34 µM.

For {FITC}-AVWTQEHDAILEHFAQ [FITC-DNAH2 92-107], the Kd [4] was ~190 µM.

B1 gave a Kd [5] of 88 µM, a Kd [6] of 111 µM and a Kd [7] of 450 µM. For the same binder, the Kd [8] was ~3.2 mM.

For NPYSEGQFLDEHHSVN [RIF1 1780-1795], the Kd [2] was 88 µM.

For MNIQEQGFPLDLGAS [AXIN1_(1–15)], the Kd [3] was 49 µM.

{FITC}-PGHSPADYLRFQDLVL [FITC-DYRK1B 394-409] showed a Kd [9] of 3.2 µM.

Work on SDEGALLDQLYLALRN [NCOA2_(1074–1089)] yielded a Kd [1] of 26 µM.

Binder MNIQEQGFPLDLGASY [AXIN1 1-15] has a Kd [2] of 49 µM.

For AEGIDIGEMPSYDLVL [NKRF_(8–23)], the Kd [3] was 50 µM.

FQGAWLGCPEPWEPLL [NOTCH4 1605-1620] showed a Kd [2] of 125 µM.

With FTEEDLHFVLYGVTPS [PRDM14_(197–213)] the Kd [10] was 37 µM.

For DIGLLPSPGETGVPWR [MCM9 796-811], the Kd [2] was ~3200 µM.

Work on MQGLSLDAASQPSKGY [MVB12A 166-180] yielded a Kd [2] of 450 µM.

In the case of GSTYLHPLSELLGIPL [MBOAT1_(16–31)], the Kd [11] is reported as 104 µM.

Source: article PMC10499821 (2023)
